Laboratory results reported in patent US20160053025A1 (SAMSUNG ELECTRONICS, published 2016).

What was measured:
BSA = target: T1, BSA (Bos taurus, UniProt P02769); assay: Complex ELISA: plate coated with BSA, 10D6 2 ug/ml with or without FLAG-Ang2 0.25 ug/ml, anti-mouse IgG-HRP, OD450
T1 construct: commercial preparation; also called Bovine serum albumin; Sigma
Experimental: (§1) A 96-well MaxiSorp™ flat-bottom plate (Nunc) was coated with 4 μg/ml of Tie2-Fc (R&D systems) or BSA (Sigma). Then, the plate was washed five times with 0.05% (v/v) Tween-20-containing PBS (Phosphate Buffer Saline) and blocked with 1% (v/v) BSA (Bovine serum albumin; Sigma)-containing PBS at a room temperature for 2 hours. 0.25 μg/ml of Ang2 and 2 μg/ml of 10D6 antibody were added to each well of the plate, which was allowed to react at a room temperature for 2 hours and then washed five times with PBST. After that, an anti-mouse IgG antibody (Sigma) conjugated with HRP diluted in 1% (v/v) BSA-containing PBS at a ratio of 1:5,000 (v/v) was added in an amount of 100 ul to each well to react at a room temperature for 1 hour and then, the plate was washed five times with PBST. Lastly, 100 ul (microliter) of TMB substrate (Cell Signaling) was added to each well of the plate to induce color development for 3 min. and then, the reaction was ceased by the addition of 100 ul of Stop solution (Cell Signaling) and OD450 values were measured on a plate reader (Molecular Devices).

[1] = target: T2, Ang2 protein (R&D systems) (human, UniProt O15123 19-496); assay: cell-based or functional assay
T2 sequence: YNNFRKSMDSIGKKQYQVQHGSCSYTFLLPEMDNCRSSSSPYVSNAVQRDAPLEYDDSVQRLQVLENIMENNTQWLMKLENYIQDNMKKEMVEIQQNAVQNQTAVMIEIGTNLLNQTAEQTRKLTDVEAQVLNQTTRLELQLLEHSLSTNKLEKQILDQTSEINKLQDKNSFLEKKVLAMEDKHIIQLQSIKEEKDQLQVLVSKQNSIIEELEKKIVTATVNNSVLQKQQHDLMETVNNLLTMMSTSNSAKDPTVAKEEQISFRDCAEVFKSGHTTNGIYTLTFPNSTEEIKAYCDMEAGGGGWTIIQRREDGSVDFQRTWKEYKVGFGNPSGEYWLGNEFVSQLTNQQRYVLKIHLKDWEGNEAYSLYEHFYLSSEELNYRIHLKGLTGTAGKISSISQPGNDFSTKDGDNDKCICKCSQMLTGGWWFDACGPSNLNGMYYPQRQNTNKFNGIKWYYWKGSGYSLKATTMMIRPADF

[2] = target: T3, recombinant hAng-2 (C-His, R&D Systems) (human, UniProt O15123 19-496); assay: SPR, BIAcore T100; hAng-2 (C-His) captured by anti-His antibody on CM5, antibody as analyte
T3 construct: Bought protein; also called human Ang-2 protein; C-terminal histidine-tagged human Ang2 (R&D Systems); not shown: C-terminal His tag
T3 sequence: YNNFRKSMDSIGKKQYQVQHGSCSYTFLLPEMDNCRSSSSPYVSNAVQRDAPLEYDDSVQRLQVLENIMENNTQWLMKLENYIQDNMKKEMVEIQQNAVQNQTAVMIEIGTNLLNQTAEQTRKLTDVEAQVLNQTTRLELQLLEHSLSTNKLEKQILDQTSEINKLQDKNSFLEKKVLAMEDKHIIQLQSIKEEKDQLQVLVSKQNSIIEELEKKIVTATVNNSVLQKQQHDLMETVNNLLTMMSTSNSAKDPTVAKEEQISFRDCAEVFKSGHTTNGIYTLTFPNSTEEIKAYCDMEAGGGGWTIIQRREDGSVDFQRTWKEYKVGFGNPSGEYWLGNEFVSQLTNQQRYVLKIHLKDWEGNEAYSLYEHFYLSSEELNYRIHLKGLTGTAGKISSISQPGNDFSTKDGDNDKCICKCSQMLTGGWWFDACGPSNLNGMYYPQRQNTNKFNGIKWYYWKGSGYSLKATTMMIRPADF
Experimental: First, anti-His antibody was immobilized on a CM5 sensor chip (GE healthcare) up to 8,000 RU levels using a pH 5.0 acetate solution and an amine coupling kit (GE Healthcare). 6 μg/ml of a recombinant hAng-2 (C-His, R&D Systems) protein was flowed onto the chip to be captured at 100 to 200 RU levels.

[3] = target: T3, recombinant hAng-2 (C-His, R&D Systems); assay: SPR, BIAcore T100; hAng2 (C-His) captured by anti-His antibody on CM5, antibody as analyte
Experimental: The binding affinity (KD values) of the antibodies to human Ang2 protein was measured by an SPR method using a BIAcore T100 (GE Healthcare). 25 μg/ml anti-His antibody was immobilized on a CM5 sensor chip (GE healthcare) using a pH 5.0 acetate solution and an amine coupling kit (GE Healthcare). 6 μg/ml of a recombinant hAng2 (C-His, R&D Systems) protein was flowed onto the chip to be captured at 100 to 200 RU levels.

hTie2-Fc (R&D Systems) = target: T4, hTie2-Fc (R&D Systems) (human, UniProt Q02763 23-745); assay: Complex ELISA: plate coated with Tie2-Fc (4 ug/ml), 10D6 2 ug/ml without Ang2, anti-mouse IgG-HRP, OD450
T4 construct: Bought fusion protein; also called hTie-2/Fc fusion protein; not shown: Fc of human IgG1
Experimental: as §1, with “0.25 μg/ml of Ang2 and 2 μg/ml of 10D6 antibody were added to each well of the plate, which was allowed to react at a room temperature for 2 hours and then washed five times with PBST.” left out

T4 sequence (Q02763 23-745 limits assumed): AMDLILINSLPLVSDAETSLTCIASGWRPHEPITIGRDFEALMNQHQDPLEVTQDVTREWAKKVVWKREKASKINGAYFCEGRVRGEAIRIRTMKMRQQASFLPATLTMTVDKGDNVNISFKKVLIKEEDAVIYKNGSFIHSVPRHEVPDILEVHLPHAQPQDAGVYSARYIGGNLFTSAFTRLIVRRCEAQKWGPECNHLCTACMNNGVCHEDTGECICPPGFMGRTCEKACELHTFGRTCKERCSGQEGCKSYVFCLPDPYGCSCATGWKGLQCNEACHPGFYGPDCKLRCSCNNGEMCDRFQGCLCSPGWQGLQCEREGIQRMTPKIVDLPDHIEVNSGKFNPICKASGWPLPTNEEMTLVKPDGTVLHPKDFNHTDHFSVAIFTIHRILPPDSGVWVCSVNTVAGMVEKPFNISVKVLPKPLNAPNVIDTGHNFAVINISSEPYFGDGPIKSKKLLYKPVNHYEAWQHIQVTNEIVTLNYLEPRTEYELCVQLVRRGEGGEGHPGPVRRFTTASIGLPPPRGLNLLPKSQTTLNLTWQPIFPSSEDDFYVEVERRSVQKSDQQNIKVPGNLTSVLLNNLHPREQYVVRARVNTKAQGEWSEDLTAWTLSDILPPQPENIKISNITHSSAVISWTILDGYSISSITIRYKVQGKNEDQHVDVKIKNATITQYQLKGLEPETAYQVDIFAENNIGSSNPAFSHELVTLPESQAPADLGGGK
T1 sequence (P02769 25-607 limits assumed): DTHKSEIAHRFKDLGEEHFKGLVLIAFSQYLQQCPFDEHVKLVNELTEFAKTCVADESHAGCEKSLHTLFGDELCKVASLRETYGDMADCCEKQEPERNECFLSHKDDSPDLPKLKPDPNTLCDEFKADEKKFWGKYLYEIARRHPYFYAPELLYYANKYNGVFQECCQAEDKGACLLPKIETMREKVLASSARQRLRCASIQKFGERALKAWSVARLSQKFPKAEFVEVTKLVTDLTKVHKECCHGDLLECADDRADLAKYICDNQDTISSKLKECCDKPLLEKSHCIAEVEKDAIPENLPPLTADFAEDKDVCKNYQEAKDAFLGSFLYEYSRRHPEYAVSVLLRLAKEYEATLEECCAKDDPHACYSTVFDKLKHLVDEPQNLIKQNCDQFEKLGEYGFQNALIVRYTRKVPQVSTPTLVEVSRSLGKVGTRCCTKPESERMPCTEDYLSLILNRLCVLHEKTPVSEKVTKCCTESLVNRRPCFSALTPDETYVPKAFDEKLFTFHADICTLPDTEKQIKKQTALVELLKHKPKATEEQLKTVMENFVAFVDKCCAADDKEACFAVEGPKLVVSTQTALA

B1: SAIT-ANG2-AB-m10D6 (antibody, V domains shown)
VH: DVQLQESGPDLVKPSQSLSLTCTVTGYSITSDYAWNWIRQFPGNKLEWMGYINYSGNTDYNPSLKSRSSITRDTSKNQFFLQLNSVTTGDTATYYCARGNFEGAMDYWGQGTSVTVSS
VL: SIVMTQTPKFLLVSAGDRVTITCKASQSVSNDVAWYQQKPGQSPKLLIYYASNRYPGVPDRFTGSGYGTDFTFTISTVQAEDLAVYFCQQDYSSPWTFGGGTKLEIK
notes: Mouse monoclonal antibody purified from a hybridoma (KCLRF-BP-00295); it is not applied here; also called mouse antibody 10D6; 10D6 antibody
- binding result (BSA): no binding (tested: 2 ug/ml)
- Tie2 phosphorylation effect against control antibody RG [1]: ~8.6 fold
- Tie2 phosphorylation level (pTyr/Tie2 ratio, HUVEC, 60 nM antibody) [1]: 180%
- Kd [2]: 8 nM
- Kd [3]: 8 nM
- koff [3]: 0.000193 s⁻¹
- kon [3]: 24100 M⁻¹ s⁻¹
- binding result (hTie2-Fc (R&D Systems)): no binding (tested: 2 ug/ml)
